Data reported in PMC10855199.

Target: Aβ42 oligomers
Assay: SPR; Biacore T200; AL fibrils (1000 RU) or Aβ42 oligomers (500 RU) amine-coupled on CM5; two-fold serial dilutions of whole antibody injected at 30 μL/min; 25 °C; 10 mM phosphate, 137 mM NaCl, 2.7 mM KCl, 0.05% Tween-20, pH 7.5; global fit to a Langmuir 1:1 model

- Kd: 1.53 nM
- koff: 0.00116 s⁻¹
- kon: 761000 M⁻¹ s⁻¹
B1: wild-type crenezumab (antibody, V domains shown)
VH: EVQLVESGGGLVQPGGSLRLSCAASGFTFSSYGMSWVRQAPGKGLELVASINSNGGSTYYPDSVKGRFTISRDNAKNSLYLQMNSLRAEDTAVYYCASGDYWGQGTTVTVSS
VL: DIVMTQSPLSLPVTPGEPASISCRSSQSLVYSNGDTYLHWYLQKPGQSPQLLIYKVSNRFSGVPDRFSGSGSGTDFTLKISRVEAEDVGVYYCSQSTHVPWTFGQGTKVEIK
